“Also recorded” adds a separate entry of the source.
Columns and labels:
Assay type in all cases: biochemical
dGAE [1] = target: T1, dGAE (Homo sapiens, UniProt P10636); assay: Tau aggregation inhibition assay in vitro, TEM
T1 construct: dGAE, corresponding to amino acid residues 297-391 using numbering from 2N4R tau; made in house
Method: (§1) dGAE protein was diluted into 10 mM phosphate buffer, pH 7.4 (PB) with monoclonal antibody s1 D12 at a ratio of 4:1 protein:Ab (100 μM dGAE+25 μM s1D12 and 10 μM dGAE+2.5 μM s1D12) or 1:1 (25 μM dGAE+25 μM s1D12).
(§2) As a positive control, dGAE was prepared at a final concentration of 10, 25 or 100 μM in 10 mM PB. Negative controls consisted of dGAE with a non-tau IgG antibody at a ratio of 4:1 (10 μM dGAE+2.5 μM anti-ovalbumin), or antibody alone (25 or 2.5 μM s1D12 and 2.5 μM anti-ovalbumin). Samples were agitated at 700 rpm at 37° C. for 3 days.
Transmission electron microscopy (TEM), circular dichroism (CD) and Thioflavin S (ThS) assays were performed as detailed in Al-Hilaly et. al. (2018) J. Mol. Biol. 430, 4119-4131. Briefly, TEM grids were prepared by adding 4 μL of sample to a carbon-coated grid followed by a wash with milli-Q filtered water then staining twice with 2% uranyl acetate. Grids were air dried and then imaged using a JEOL electron microscope operating at 80 kV.

dGAE [2] = target: T1, dGAE; assay: Tau aggregation inhibition assay in vitro, circular dichroism; conditions: 100 μM dGAE + 25 μM s1D12 (4:1)
Method: as §1, §2
(§3) For CD, 60 μL sample was placed in a 0.1 mm quartz cuvette and placed into a JASCO spectropolarimeter. 100 μL ThS in 20 mM MOPS buffer was added to 50 μL of each sample to a final concentration of 20 μM, mixed well, incubated at room temperature for 10 minutes then fluorescence intensity measured in a Cary Eclipse spectrophotometer using an excitation wavelength of 440 nm. Baseline readings from 10 mM PB were subtracted from CD and ThS measurements.

dGAE [3] = target: T1, dGAE; assay: Tau aggregation inhibition assay in vitro, Thioflavin S fluorescence; conditions: 25 μM (1:1) and 100 μM (4:1) dGAE with s1D12
Method: as §1, §2, §3

T1 sequence (P10636 614-708): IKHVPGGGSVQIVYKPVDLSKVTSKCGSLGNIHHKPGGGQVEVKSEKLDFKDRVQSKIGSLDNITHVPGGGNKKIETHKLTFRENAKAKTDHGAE

B1: s1D12: monoclonal antibody binding tau epitope within residues 337 to 349 or 341 to 353 of SEQ ID NO: 1 (antibody)
heavy: QVQLQESGPSLVKPSQTLSLTCTVSGFSLNNNAVGWVRQAPGKVPESLVGCSSDGTCYYNSALKSRLDITRDTSKNQISLSLSSVTTDDAAVYYCTRGHYSIYGYDYLGTIDYWGPGLLVTVSSAKTTAPSVYPLAPVCGDTTGSSVTLGCLVKGYFPEPVTLTWNSGSLSSGVHTFPAVLQSDLYTLSSSVTVTSSTWPSQSITCNVAHPASSTKVDKKIEPRGPTIKPCPPCKCPAPNLLGGPSVFIFPPKIKDVLMISLSPIVTCVVVDVSEDDPDVQISWFVNNVEVHTAQTQTHREDYNSTLRVVSALPIQHQDWMSGKEFKCKVNNKDLPAPIERTISKPKGSVRAPQVYVLPPPEEEMTKKQVTLTCMVTDFMPEDIYVEWTNNGKTELNYKNTEPVLDSDGSYFMYSKLRVEKKNWVERNSYSCSVVHEGLHNHHTTKSFSRTPGK
light: QAVLTQPSSVSGSLGQRVSITCSGSSSNVGGGNSVGWYQHLPGSGLKTIIYDTNSRPSGVPDRFSGSRSGNTATLTINSLQAEDEGDYYCVTGDSTTHDDLVGSGTRLTVLGGQPKSSPSVTLFPPSSEELETNKATLVCTITDFYPGVVTVDWKVDGTPVTQGMETTQPSKQSNNKYMASSYLTLTARAWERHSSYSCQVTHEGHTVEKSLSRADCS
dGAE [1]; collective finding of TEM, CD and ThS experiments
  overall effect on assembly of dGAE into fibrils: inhibits the assembly of dGAE into fibrils in vitro; also recorded: specifically inhibits the assembly of dGAE into fibrils
dGAE [1]; dGAE:antibody 4:1 or 1:1 (anti-ovalbumin 4:1, 10 μM dGAE), 700 rpm, 37° C., 3 days
  fibril formation of dGAE in presence of antibody (TEM): no fibril formation is observed; also recorded: no fibrils were present
dGAE [2]
  dGAE secondary structure in presence of antibody (CD, antibody spectrum subtracted): dGAE cannot assemble into 3-sheet rich fibrils
dGAE [2]; listed as s1 D12
  dGAE secondary structure in presence of antibody (CD, antibody spectrum subtracted): dGAE has not assembled into fibrils
dGAE [3]
  ThS emission peak at 483 nm of dGAE in presence of antibody: this signal was abolished
dGAE [3]; listed as s1 D12
  ThS emission peak at 483 nm of dGAE in presence of antibody: abolished

— patent publication US20230266303A1, “SYSTEM” (GTINVENT LIMITED, priority 2020, published 2023)
